Source: the Human Domainome abundance scans (Beltran et al. 2025)
± gives the uncertainty stated by the source.

B1: TOX high mobility group box family member 3, residues 256 to 323; numbered along this chain, O15405 (parent)
chain: QKPVSAYALFFRDTQAAIKGQNPNATFGEVSKIVASMWDSLGEEQKQVYKRKTEAAKKEYLKALAAYR
B2: POU domain, class 3, transcription factor 1, residues 247 to 324; numbered along this chain, Q03052 (parent)
chain: EDAPSSDDLEQFAKQFKQRRIKLGFTQADVGLALGTLYGNVFSQTTICRFEALQLSFKNMCKLKPLLNKWLEETDSSS

Variants of: B1
Assay: abundance fitness (aPCA) (normalised: wild type 0, dead -1); higher = more abundant; growth selection in yeast, the domain comes from the species named
Settings: Homo sapiens

Row | Variant | abundance fitness
1 | QKPVSAYALFFRDTQAAIKGKNPNATFGEVSKIVASMWDSLGEEQKQVYKRKTEAAKKEYLKALAAYR [Q21K] | 0.029 ± 0.1
2 | QKPVSAYALFFRDTQAKIKGQNPNATFGEVSKIVASMWDSLGEEQKQVYKRKTEAAKKEYLKALAAYR [A17K] | 0.196 ± 0.085
3 | QKPVSAYALFFRDTQAAIKAQNPNATFGEVSKIVASMWDSLGEEQKQVYKRKTEAAKKEYLKALAAYR [G20A] | 0.129 ± 0.051
4 | QKPVSAYALFFRDTQAAIKGQNPNATFGEVSKIVASMWDSLGEEQYQVYKRKTEAAKKEYLKALAAYR [K46Y] | -0.529 ± 0.17
5 | QKPVSAYALFFRDTQAAIKGQNPNATFGEVSKIVASMWDSLGEEQKQVYKRKTEAAKKEYLPALAAYR [K62P] | -0.142 ± 0.05
6 | QKPVSAYALFFRDTQAAIKGQNPNATFGEVSKIVASMWDSLGEEQKQVYKRKTEAAKKEYLCALAAYR [K62C] | -0.3 ± 0.078
7 | QKPVSAYALFFRDTQAAIKGQNPNATFGEVSKIVASMWDSLGEEQKQVYKRKTEAYKKEYLKALAAYR [A56Y] | -0.102 ± 0.17
8 | QKPVSAYALFFRDTQAAIKGQNPNATFGEVSKIVASMWDSLGEEQKQVYKRKTEAAKKEYLKALAQYR [A66Q] | 0.093 ± 0.06
9 | QKPVSAYALFFRDTQAAIKGQNPNATFGEVSKIVAIMWDSLGEEQKQVYKRKTEAAKKEYLKALAAYR [S36I] | -0.191 ± 0.094
10 | QKPVSAYALFFRDTQAAIKGQNPNATFGEVSKIVASMWDSLGEEQKQVYKRKEEAAKKEYLKALAAYR [T53E] | 0.257 ± 0.063
11 | QKPVSAYALFFRDTQAAIKGQNPNATFGEVSKIVASMTDSLGEEQKQVYKRKTEAAKKEYLKALAAYR [W38T] | -1.28 ± 0.37
12 | QKPVSAYALFFRDTQAAIKGQNPNATFGEVSKIVASMPDSLGEEQKQVYKRKTEAAKKEYLKALAAYR [W38P] | -1.03 ± 0.22
13 | QKPVSAYALFFRDTQAAIYGQNPNATFGEVSKIVASMWDSLGEEQKQVYKRKTEAAKKEYLKALAAYR [K19Y] | -0.151 ± 0.11
14 | QKPVSAYALFFRDTQAAIKGQNPNATFGEVSKIYASMWDSLGEEQKQVYKRKTEAAKKEYLKALAAYR [V34Y] | -0.974 ± 0.22
15 | QKPVSAYALFFRDTQAAIKGQNPNATFGEVSKIFASMWDSLGEEQKQVYKRKTEAAKKEYLKALAAYR [V34F] | -0.956 ± 0.17
16 | QKPVSAYALFFRDTQAAIKGQNPNATFGEVSKIVASMWDSLGEEIKQVYKRKTEAAKKEYLKALAAYR [Q45I] | -0.479 ± 0.1
17 | QKPVSAYALFFSDTQAAIKGQNPNATFGEVSKIVASMWDSLGEEQKQVYKRKTEAAKKEYLKALAAYR [R12S] | -0.113 ± 0.064
18 | QKPVSAYALFFRDTQAAIKGQNPNATFGEVSKIVASMWDSLGEEQKQVYKQKTEAAKKEYLKALAAYR [R51Q] | -0.041 ± 0.058
19 | QKPVSAYALFFRDTQAAIKGQNPNATFGEVSKIVASMWDSLGEEQKQVYKGKTEAAKKEYLKALAAYR [R51G] | -0.032 ± 0.049
20 | QKPVSAYALFFRDTQAAIKGQNPNATFGEVSKMVASMWDSLGEEQKQVYKRKTEAAKKEYLKALAAYR [I33M] | 0.101 ± 0.071
21 | QKPVSVYALFFRDTQAAIKGQNPNATFGEVSKIVASMWDSLGEEQKQVYKRKTEAAKKEYLKALAAYR [A6V] | -0.601 ± 0.084
22 | QKPVSAYALFFRDCQAAIKGQNPNATFGEVSKIVASMWDSLGEEQKQVYKRKTEAAKKEYLKALAAYR [T14C] | -0.781 ± 0.29
23 | QKPVSAYALFFRDDQAAIKGQNPNATFGEVSKIVASMWDSLGEEQKQVYKRKTEAAKKEYLKALAAYR [T14D] | -0.704 ± 0.17
24 | QKPVSAYALFFRDTQAAIKGQNPNATFGEVSKIVASMWDSLMEEQKQVYKRKTEAAKKEYLKALAAYR [G42M] | -0.613 ± 0.068
25 | QKPVSANALFFRDTQAAIKGQNPNATFGEVSKIVASMWDSLGEEQKQVYKRKTEAAKKEYLKALAAYR [Y7N] | 0.007 ± 0.16
26 | QKPVSAYALFFRDTQHAIKGQNPNATFGEVSKIVASMWDSLGEEQKQVYKRKTEAAKKEYLKALAAYR [A16H] | -0.09 ± 0.17
27 | QKPVSAYALFFRDTQAAIKGQNPIATFGEVSKIVASMWDSLGEEQKQVYKRKTEAAKKEYLKALAAYR [N24I] | -0.879 ± 0.27

Variants of: B2
Assay: as above
Settings: Homo sapiens

Row | Variant | abundance fitness
28 | EDNPSSDDLEQFAKQFKQRRIKLGFTQADVGLALGTLYGNVFSQTTICRFEALQLSFKNMCKLKPLLNKWLEETDSSS [A3N] | 0.444 ± 0.11
29 | EDCPSSDDLEQFAKQFKQRRIKLGFTQADVGLALGTLYGNVFSQTTICRFEALQLSFKNMCKLKPLLNKWLEETDSSS [A3C] | 0.172 ± 0.11
30 | EDEPSSDDLEQFAKQFKQRRIKLGFTQADVGLALGTLYGNVFSQTTICRFEALQLSFKNMCKLKPLLNKWLEETDSSS [A3E] | -0.049 ± 0.08
31 | EDFPSSDDLEQFAKQFKQRRIKLGFTQADVGLALGTLYGNVFSQTTICRFEALQLSFKNMCKLKPLLNKWLEETDSSS [A3F] | 0.281 ± 0.12
32 | EDHPSSDDLEQFAKQFKQRRIKLGFTQADVGLALGTLYGNVFSQTTICRFEALQLSFKNMCKLKPLLNKWLEETDSSS [A3H] | 0.258 ± 0.15
33 | EDDPSSDDLEQFAKQFKQRRIKLGFTQADVGLALGTLYGNVFSQTTICRFEALQLSFKNMCKLKPLLNKWLEETDSSS [A3D] | -0.164 ± 0.14
34 | EDGPSSDDLEQFAKQFKQRRIKLGFTQADVGLALGTLYGNVFSQTTICRFEALQLSFKNMCKLKPLLNKWLEETDSSS [A3G] | -0.053 ± 0.063
35 | EDMPSSDDLEQFAKQFKQRRIKLGFTQADVGLALGTLYGNVFSQTTICRFEALQLSFKNMCKLKPLLNKWLEETDSSS [A3M] | 0.363 ± 0.071
36 | EDPPSSDDLEQFAKQFKQRRIKLGFTQADVGLALGTLYGNVFSQTTICRFEALQLSFKNMCKLKPLLNKWLEETDSSS [A3P] | 0.051 ± 0.087
